The record followed here is the nanobody polyreactivity screen of Harvey et al. (2022).

The series is described as follows: yeast display, Sf9 membrane polyspecificity reagent, FACS + sequencing; frameworks hold sequencing errors. In outline: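 In a synthetic yeast display library (Saccharomyces cerevisiae BJ5465), nanobody expression was induced with galactose for 36–48 hours. FACS gates were set low and high (top ~1%) using anti-HA fluorescence for expression and streptavidin fluorescence for binding of the Sf9 membrane reagent. Each polyreactivity label is drawn from the gate of origin.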
As to “QVQLVESGGCLVQAGGSLRLSCAASGRIIYSNGMGWYRQAPGKERELVAAISSGGSTYYADSVKGRFTISRDNAKNTVYLQMNSLKPEDTAVYYCNKDYLLRHYYIYVIEGDYWGQGTQVTVSS”, the “polyreactivity (PSR sort gate)” value was “low polyreactivity”.
As for “QVQLVDSGGGLVQAGGSLPLICADAGSTFNSYAMGRYRQAPGKKRELVAAIRWIGDSTYADSVKGRFTISRDNATNTVYLQMNSLKPVDTAVYYCAATDVSWGVDYWGQCTQVTVSS”, the “polyreactivity (PSR sort gate)” value is listed as “low polyreactivity”.
As for “QVLLQESGGGLVQAGGSLRMSCAASGNIFSAGGMGWYRQAPVNERELVAGIGTGTSTNYADSVKGRFTISRDNAKNTVYLQMNSLKPEDTAVYYCAAAYYSGLSHWYWGQGTQVTVSS”, the entry is “low polyreactivity”; as for “QVQLVESGGGLVQAGGSLRLSCAASGSIFYHNAMGWYRQAPGKERELVAAITWSGSTTYYADSVKGRFTISRDNAKNTVYLQMNSLKPEDTAVYYCNGGYRHGHYDYWGQGTQVTVSS”, “low polyreactivity”; as for “QVHLVESGGGLVQAGGSLRLSCAASGRIFYYNAMGWYRQAPGKERELVAAISSAGSTYYADSVKGRFTLSRDNAKNTVYLQMNSLKPEDTAVYYCNAGKHERMDWGQGTQVTVSS”, “high polyreactivity”.
Then “QVQLVESGGGLLQAGGSLRLSCAASGRTLGIYAMGWYRQAPWKERELVAAITLSGSDTYYADSVKGRFTISRDNAKNTVYLQMNSLKPEDTAVYDCAAKTYGGYGKYGYWGQGTQVTVSS”, with “low polyreactivity”; and “QVQLVESGGGLVQAGGSLRLSCAASGSIFRSYAMGWYRPAPGKERELVAAISSGGRTKYADSVKGRFTISRDNAKNTVYLQMNSLKPEDTAVYYCAARAYYARFLMGYWGQGTQVTVSS”, with “high polyreactivity”.
As for “QVQLVESGGGLVQAGGSLRLSCAASGLTFYAYAMGWYRQAPGKERELVAAIRWSGGRTYYADSVKGRFTISRDTEKNTVYLQMNSLKPEDTAVYYCAAELSWRLYDYEYWGQGTQVTVSS”, the entry is “low polyreactivity”; as for “QVQLVESGGGLVQAGGSLRLSCAASGRTFGYYAMGWYRQAPGNERELVASISQSGGRTYYADSVKGRFTISRDNAKNTVYLQMNSLKPVDTAVYLCNAVYYRRTGYEYWGQGSQVTVSS”, “high polyreactivity”; as for “QVQLVDSGGGLVQAGGSLRLSCAASGSIFPSYAIGWYRQAPGKERELVATIGRGGTTNYADSVKGRFTISRDNAKNTVYLQMNSLKPEDTSVYYCNAERIWRYKYGYDYWGQGTQVTVSS”, “high polyreactivity”.
“QVQLVESGGGLVQAGGSLRLSCAASGITFEYYDMGWYRQAPGKERELVAAISWSTDITYADSVKGRFTISRDNAKNTVYLQMNSLKPEDTAVYYCAASTYEYTSYDYWGHGTQVTVSS”: the “polyreactivity (PSR sort gate)” value is “low polyreactivity”.
Then “QVQLVESGGGLVQAGGSLRLTCAPSGSTLLVYAMGWNRQAPGKERELVAAISGSGGRTSYADSVKGRFTISRDNAKNTVYLQMNSLKPEDTAVYYCAARRAGTYDYWGEGTQVTVSS”, with “high polyreactivity”; and “QDQLVQSRGGLVQAGGSLRISSAASGGTYFGYAMGWKRQAPGKERELVAAIRWSDGRTYYADSVKGRFTISRDNAKYTVYLQMNSLNPEDTAVYYCNADDARLFDYWGQGTQVTVSS”, with “low polyreactivity”.
As for “QVQLVESGGGLVQAGGSHRLSCAASGSIFHRYAMGWYRQAPGKERELVAGITWSGDSTYYADSVKGRFTISRDNAKNTVYLEMNSLKPEDTGVYYCAKRAPRHYKGVPAAWFGYWGQGTQVTVSS”, the entry is “low polyreactivity”; as for “QVQLVESGGGLVQAGGSLRLSCAASGSIFSSNAMGWYRQAPGKERELVASIRRGGSTYYADSVKGRFTISRDNAMNTVYLQMNSLKPEDTAVYDCARRYVPWYATYDHWGQGTQVTVSS”, “high polyreactivity”; as for “QVQLVESGGGLVQAGGSLRLSCAASGSIFYGYAMGWYRQAPGKERELVAAISWTGGRTYYADSVKGRFTISRDNAKNTVYLQMNSLKPEDTAVYYCNVRRYSVVSGGYCGQGTQVTVSS”, “high polyreactivity”.
Then “QVQHVESGGGLVQAGGSLRLSCAASGFTYFSNAMGWYREAPGKERELVASITNDGSTYADSVKGRFTISRDNAKNTVYLQMNRLKAEDTAVYYCAARFPKWRYSPRTGERFDYWGQGTQVTVSS”, with “low polyreactivity”; and “QVQLVESGGGLVQAGGSLRLSCAASGFIFVGYAMGWYRQAPGKERELVAAISWDGGSTDYADSVKGRFTISRDNAKNTVYLQMNSLKPEDTAVYYCAASYQYWGFWYEYWGQGTQVTVSS”, with “high polyreactivity”; and “QVQLVESGGGLVQAGGSLRLSCAASGITFSPYTMGWYRQAPGKERELVAAINDGAITYYADSVKGRFTISRDNAKNTVYLQMNSLKPEDTAVFYCAAAAWGTDPFSTDYATYDYWGQVTQVTVSS”, with “low polyreactivity”.
Take “QVHLVESGGGLVQAGGSLRLSCASSGSIFGPYVMGWYRQAPRKERELVAAITWNGGSTNYADSLKGRFTISRDNAKNTVYLQMNSLKPEETAVYYCNTVSWPLSSKYYYWGQGTQVSVSS”: the “polyreactivity (PSR sort gate)” value is reported as “high polyreactivity”.
“QVQIVESGGGLVQAGGSLRLSCAASGFIFWFNAMGWYRQAPGKERELVATISWSDTSTYYAVSVKGRFTISRDNAKNTVYLQMNSLKPEDTAVYYFATDASETSLPEYYWGQGTQETVSS”: the “polyreactivity (PSR sort gate)” value is reported as “low polyreactivity”.
As for “QVQLVESGGGLVQAGGSLRLSCAASGRIFGGYTMGWYRQAPGKEREFVAAITSSGGSTYYADSVKGRLTISRDNAKNTVYLQMNSLKPEDTAVYYCAVADYYDDYDYWGQGTQVTVSS”, the entry is “low polyreactivity”; as for “QVQLVESGGGLVQAGGSLRLSCAASGLIFGTKAMGCYRQAPGKERELVAAMSGSGGRTYYADSVKARFTISRDNAKNTVYLQMNSLKPEDTAVYYCASRFWRLHVGYGYSGQGTQVTVSS”, “high polyreactivity”; as for “QVQLVESGGGLVQAGGSLRLSCAASGSIFYRYAMGWYRQAPGKERELVAAISYSGGSTYYADSVKGRFTISRDNAKNTVYLQMNSQKPEDTAVYYCAKDYPPPISDYSRYYGYGYWGKGTQVTVSS”, “low polyreactivity”.
As for “QVQLVESGGGLVQAGGSLRLSCAASGSTFVRNAMGWYRQAPGKERELVAGISTGDNTYYADSVKGRFTISRDNAKNTVYLQMNSLKPEDSAVYYCAARGLPSNYYYYVHGYIMDYWGQGTQVTVSS”, the “polyreactivity (PSR sort gate)” value is recorded as “low polyreactivity”.
Turning to “QVQLVESGGGLVQAGGSLRLSCAASGIFRRYAMGWYRQAPGKERELVAAISSSGGSTDYADSVKGRFTISRDNAKNTVYLQMNSLKPEDTAVYYCNAYDQHGWWCYAYDYWGQGTQVTVSS”, the “polyreactivity (PSR sort gate)” value is on record as “high polyreactivity”.
As for “QVQLVESGGGLVQAGGSLRLSCAASGRTFAPYAMGWYRQAPGKERELVARITWSGTDTYYADSVKGRFTISRDNAKNNVYLQMNSLKPEDTAVYYCAADARYSRRYYYWGQGTQVTVSS”, the entry is “low polyreactivity”; as for “QVQLVESGGGLVQAGGSLRLSCAASGRTFRYNAMGWYRPAPGKERELVAAITKSGGTTYYADSVKGRFTISRDNAKNTVYLQMNSLKPEDTAVYYCNAYRVVHPWEYDYWGQGTQVTVSS”, “high polyreactivity”.
As for “QVQLVESGGGLVQAGGSLRLSCAAYGRIFVFYDMGWYRQAPGKDRELVATISFRGGSTYYADSVKGRFTISRDNAKNTVYLQMNCLKPEDTAVYYCAKENKRGYSTSGYYYWGQGTQVTVSS”, the entry is “low polyreactivity”; as for “QVQLVESGGGLVQAGGSLRLSCAASGINFNRYAMGWYRQAPGNERELVAAITSSGGSTHYADSVKGRFTISRDNAKNTVYLQMNSLKPEDTAVYYCAKQFPNNYRYYLHYYYWGQGTQVTVSS”, “low polyreactivity”; as for “QVQLVESGGGLVQAGGSLRLSCAASGSTFQDYAMGWYRQAPGKERELVAAISKRGGRTYYADSVKGRFTISRDNAKNTVYLQMNSLKPEETAVYYCNTYPVPGGVTYSYTGFDYWGQGTQVTVSS”, “high polyreactivity”.
As for “QVQLVDSGGGLVQAGGSLLLSCAASGHTLYRNAMGWYRQAPGKERELVAAITSRGGSTFYADSVKGRFTISRDNAKNSVYLQMNCLQPEDTAVYYCNTARGTAPAHDYWGQGTQVTVSS”, the entry is “low polyreactivity”.
As for “QVQLVETGGGLVQAGGSLRLSCAASGSTLTYYTMGWYRQAPGKERELVARISWSSGRTYYAVSVKGRFTISRDNAMNTVYLQMNSLKPEDTAVYYCNADRTYYRGLDYWGQGTQVTVSS”, the “polyreactivity (PSR sort gate)” value was “high polyreactivity”.
With “QVQLVESGGGLVQAGGSLRLSCAASGRNFRDYTMGWYRQAPGKERELVAAITSTGDTNYADSVKGRFTISRDNAKNTVYLQMNSLKPEDTAVYYCATQTGEEYQAPLIYDYWGQGTQVTVSS”, the “polyreactivity (PSR sort gate)” value was “low polyreactivity”.
As for “QVQLVESGGGLVQAGGSLRLSCAASGRTFVTYAMGWYRQAPGKEREFVAAISRNGGSTYYADSVKGRFTISRDNAKNTVYLQMNSLKPEDTAVYYCAAYAYIFLDWGGYPYYLYEYDYWGQGTQVTVSS”, the entry is “low polyreactivity”.
Turning to “QVQLVESGGGLVQAGGSLRLSCAASGSTFPTNTMGWYRQAPGKERELVATIRKSSGRTYYADSVKGRFTISRDNAKNTVYLQMNSLKPEDTAVYYCNARRYSGALRYDYWGQGTQVTVSS”, the “polyreactivity (PSR sort gate)” value was “high polyreactivity”.
On to “QVQLVESGGGLVQAGGSLRLSCAASGRIFTQYAMGWYRPAPGKERELVAAINASDGSTYADSVKGRFTISRDNAKNTVYLQMNSLKPEDPAVYYCNVTGGPYDFTRWSEFDHWGQGTQVTVSS”, for which the “polyreactivity (PSR sort gate)” value was “low polyreactivity”.
In the case of “QVQLVESGGGLVQAGGSLRLSCAASGSIFQRYAMGWYRQAPGKEREFVAAISGRGGSTYYADSVKGRFTISRDNAKNTVYLQMNSLKPEDTAVYYCAVRGRSYVRTYDYWGQGTQVTVSS”, the “polyreactivity (PSR sort gate)” value is “high polyreactivity”.
Then “QVQLVESGGGLVQAGGSLRLSCAASGSTFLNYAMGWYRQAPGKERELVAAISFSGGRTYYADSVKGRFTISRDNAKNTVYLQMNSLKPEDTAVYYCAAGGWRGHYYWGQGTQVTVSS”, with “high polyreactivity”; and “QVQLVESGVCLVQAGGSLRLSCAASGFTFKWYAMGWYRQAPGKERELVATITIGGRTNYADSVKGRFTISRDNAKNTVYLQMNSLKPEETAVYYCATYFVGFRLSDYDYWGQGTQVTVSS”, with “low polyreactivity”.
As for “QVQLVESGGGLVQAGGSLRLSCAASGGTFRYYAMGWYRQAPGKEREFVAAITSSGGSTYYADSVKGRFTISRDNAKKTVYLQMNRLKPEDTAGYYCATDNPFLWWFRPDQHGMGYWGQGTQVTVSS”, the entry is “low polyreactivity”.
